The results in this text go back to US20150010566A1 (AIMM THERAPEUTICS B V, published 2015).

The target of one experiment is HA of H3N2 HKX-31 virus (Influenza A virus H3N2 HKX-31). In words: cell-based or functional assay.
For experiment [1], the target named is HA of H5N1 A/turkey/Turkey/05 virus (Influenza A virus H5N1 …). Put plainly: cell-based or functional assay.
Experiment [2] deals with T1, recombinant HA of full length H3 (A/Aichi/2/1968, full length) (Influenza A virus H3N2 A/Aichi/2/1968 …, UniProt P03437 17-530).
T1 construct: domain: full length; also called H3N2 A/Aichi/2/1968 Full length; full-length H3 HA protein
In words: ELISA; antigen coated 1 µg/ml; recombinant antibody. More on the design: concentration or dose not given beside the values. In general terms: ELISA stands for enzyme-linked immunosorbent assay.

Experiment [3] has as its target HA of Influenza H1N1 (A/Hawaii/31/2007), on infected MDCK-SIAT cells or on virus (Influenza A virus H1N1 A/Hawaii/31/2007). Put plainly: cell-based or functional assay.

B1: AT10-002 (antibody, V domains shown)
VH: QLQLQESGPRLVKPSETLSLTCSVSGVSISSSNYYWGWIRQPPGKGLEWIGTIYHSGSTYYNPSLKSRLIISVDTSKNQFYLQLTSLTAADSAVYYCATGGGFGWSQTYFGYWGQGTLVTASS
VL: QSALTQPASVSGSPGQSITISCTGTSSDVGAYNYVSWYQHHPGKAPKLMIYDVTYRPSGVSTRFSGSKSGNTASLTISGLQAEDEADYYCSSQSRSSTLVIFGGGTKLTVLG
On to B1, for which the “IC50, in vitro virus neutralization on MDCK-SIAT cells” value (from here on “IC50 … on MDCK-SIAT cells”) in the experiment with HA of H3N2 HKX-31 virus was found to be 0.25 µg/mL. In addition, in experiment [1], the “IC50, in vitro virus neutralization on MDCK cells” value (“IC50 … on MDCK cells” below) was greater than 15 µg/mL. Moreover, the “OD 450 nm” value in experiment [2] amounted to 0.92 OD 450 nm.

B2: AT10-004 (antibody, V domains shown)
VH: QVQLVQSGAEVRKPGASVKVSCKASGYTFTRHGISWVRQAPGQGLEWMGWISAYTGDTDYAQKFQGRVTMTTDTSTNTAYMELRSLRSDDAAVYYCARLRLQGEVVVPPSQSNWFDPWGQGTLVTVSS
VL: EIVLTQSPATLSLYPGERATLSCRASQSVSRYLAWYQQKPGQAPRLLIYDASNRATGIPARFSGSGSGTDFTLTISSLEPEDFAVYYCQQRSNWLKITFGQGTRLEIKG
As for B2, in experiment [2], the “OD 450 nm” value is 0.491 OD 450 nm.

B3: AT10-003 (antibody, V domains shown)
VH: QVHLVQSGAEVRKPGASVKVSCKVSGYTLNELSIHWLRQAPGRGLEWMGSFDPEDGETIYAQKFQGRVTMTGDTSTDTAYLELTSLRSEDTALYYCARGWGAVTSPFDFWGQGTLVTVSS
VL: DIVMTQSPLSLPVTPGEPASISCRSSQSLLHSNGHIYFDWYLQKPGQSPQLLIYLVSKRASGVPDRFSGSGSGTDFTLKISRVEAEDVGVYYCMQALETPFTFGPGTKVHIKR
Consider B3, for which the “IC50 … on MDCK-SIAT cells” value with HA of H3N2 HKX-31 virus is greater than 15 µg/mL. Further, in experiment [1], the “IC50 … on MDCK cells” value is greater than 15 µg/mL. Also, in experiment [2], the “OD 450 nm” value was determined as 1.32 OD 450 nm.

B4: AT10-001 (antibody, V domains shown)
VH: EVQLLESGGGLVQPGGSLRLSCAASGFSFSTYAMSWVRQAPGKGLEWVSGISGSGESTYYADSVKGRFTVSRDNSKNTLYLQMNSLRAEDTAVYYCAKQGDHIAWLLRGINFDYWGQGVLVTVSS
VL: EIVLTQSPGTLSLSPGERATLSCRASQSVSSSYLAWYQQKPGQAPRLLIYGASTRATGIPDRFSGRGSGTDFTLTISSLEPEDFAVYYCQNYGSPFLFTFGPGTKVDIKR
B4: the “IC50 … on MDCK-SIAT cells” value with HA of H3N2 HKX-31 virus was 2.1 µg/mL; in experiment [3], greater than 15 µg/mL. The “IC50 … on MDCK cells” value in experiment [1] is greater than 15 µg/mL. Besides, the “OD 450 nm” value in experiment [2] amounted to 0.953 OD 450 nm.

B5: AT10-005 (antibody, V domains shown)
VH: QVQLVQSGAEVKKPGSSVKVSCKASGGAFSNYAISWVRQAPGQGLEWMGGIIPIFGTTNYAQKFQGRVTITADKFTTIAYMELRSLRSEDTAVYYCARHGGVYYYGSASSGWFDPWGQGTLVTVSS
VL: EIVLTQSPGTLSLSPGERATLSCRASQSVSSSYLAWYQQKPGQAPRLLIFGASTRATGIPDRFSGSGSGTDFTLTISRLEPEDFAVFYCQQYGSLPLTFGGGTKVEIKG
Regarding B5, in experiment [1], the “IC50 … on MDCK cells” value came out at 1.3 µg/mL.
